This sample holds only a part of the variants without activity.
Key:
biotinyl-Phe-oxazolone = test: self-aminoacylation, catalytic enhancement (BFO) (fold over background); higher = more active; k-Seq, kA / k0A0; sequences stand for … in GGGAAUGGAUCCACAUCUACGAAUUC…UUCACUGCAGACUUGACGAAGCUG
Summary of the method: (§1)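 The uncatalyzed rate is the low-activity peak of a bimodal Gaussian fit, and catalytic enhancement is median kA divided by it. The kA values came from pseudo-first-order fits, with 1000 bootstraps, of per-sequence fraction reacted measured by streptavidin capture, triplicate qPCR and Illumina sequencing. Mutagenized RNA pools with a 21-nt variable region (0.43 μM) were reacted with each biotinyl-aminoacyl-oxazolone at 2–1250 μM in 50 μL HEPES/NaCl/KCl/MgCl2/CaCl2 buffer with 5% acetonitrile, pH 6.9–7.0, for 90 minutes at room temperature.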

biotinyl-Ile-oxazolone = test: self-aminoacylation, catalytic enhancement (BIO) (fold over background); higher = more active; k-Seq, kA / k0A0; sequences stand for … in GGGAAUGGAUCCACAUCUACGAAUUC…UUCACUGCAGACUUGACGAAGCUG
Summary of the method: as §1

biotinyl-Met-oxazolone = test: self-aminoacylation, catalytic enhancement (BMO) (fold over background); higher = more active; k-Seq, kA / k0A0; sequences stand for … in GGGAAUGGAUCCACAUCUACGAAUUC…UUCACUGCAGACUUGACGAAGCUG
Summary of the method: as §1

biotinyl-Val-oxazolone = test: self-aminoacylation, catalytic enhancement (BVO) (fold over background); higher = more active; k-Seq, kA / k0A0; sequences stand for … in GGGAAUGGAUCCACAUCUACGAAUUC…UUCACUGCAGACUUGACGAAGCUG
Summary of the method: as §1

biotinyl-Leu-oxazolone = test: self-aminoacylation, catalytic enhancement (BLO) (fold over background); higher = more active; k-Seq, kA / k0A0; sequences stand for … in GGGAAUGGAUCCACAUCUACGAAUUC…UUCACUGCAGACUUGACGAAGCUG
Summary of the method: as §1

biotinyl-Trp-oxazolone = test: self-aminoacylation, catalytic enhancement (BWO) (fold over background); higher = more active; k-Seq, kA / k0A0; sequences stand for … in GGGAAUGGAUCCACAUCUACGAAUUC…UUCACUGCAGACUUGACGAAGCUG
Summary of the method: as §1

Sequence | self-aminoacylation (biotinyl-Phe-oxazolone) | self-aminoacylation (biotinyl-Ile-oxazolone) | self-aminoacylation (biotinyl-Met-oxazolone) | self-aminoacylation (biotinyl-Val-oxazolone) | self-aminoacylation (biotinyl-Leu-oxazolone) | self-aminoacylation (biotinyl-Trp-oxazolone)
AUUAGCCCGGUCAUCGAGUGA [Fam2.1 aminoacylation ribozyme variant] | 55.9 | 3.45 | 6.23 | 3.57 | 6.64 | 7.74
AUUCACCGCGGUCAUCGGGUG [Fam2.2 aminoacylation ribozyme variant] | 59.7 | 4.65 | 7.49 | 5.04 | 8.56 | 7.69
AUGCUUCAAACAAUCGGUCUG [Fam1A.1 aminoacylation ribozyme variant] | 129 | 2.25 | 2.1 | 1.99 | 3.36 | 50.6
AUUCACCUACGUCUUCGGGUG [Fam2.2 aminoacylation ribozyme variant] | 24 | 2.44 | 3.36 | 2.81 | 4.28 | 3.34
CCACACGUCAAGAAAUCGGUC [Fam1B.1 aminoacylation ribozyme variant] | 1.01 | 1.28 | 1.17 | 1.44 | 1.28 | 0.951
CCACACUUCAUGCAACCGGUC [Fam1B.1 aminoacylation ribozyme variant] | 0.916 | 0.996 | 0.943 | 0.981 | 0.795 | 0.752
AUUCACCUAGUACAUCGGGUG [Fam2.2 aminoacylation ribozyme variant] | 10.4 | 1.55 | 2.21 | 1.65 | 2.71 | 2.21
AUACUCCUAGGUCAUCGGGUG [Fam2.2 aminoacylation ribozyme variant] | 27.5 | 2.97 | 3.69 | 2.98 | 5.38 | 3.91
CUACUUCACGCAAUCGGUCUG [Fam1A.1 aminoacylation ribozyme variant] | 0.929 | 0.837 | 0.912 | 0.908 | 0.711 | 0.819
AUCACCCUGGUGAUCGAGUGA [Fam2.1 aminoacylation ribozyme variant] | 54.1 | 3.57 | 7.25 | 3.87 | 8.91 | 8.41
AAGUUAGCUAAUAGUCGCCAG [Fam3.1 aminoacylation ribozyme variant] | 1.48 | 1.91 | 2.09 | 1.33 | 1.67 | 3.82
AUUACCCUGGUCAUCGAGAUA [Fam2.1 aminoacylation ribozyme variant] | 7.71 | 1.78 | 3.42 | 2.2 | 3.19 | 3.19
AUGCACCUAGGACAUCGGGUG [Fam2.2 aminoacylation ribozyme variant] | 19.4 | 3.37 | 3.57 | 2.54 | 4.43 | 5.58
CCACACUUCCAGCAGUCGGUC [Fam1B.1 aminoacylation ribozyme variant] | 0.659 | 1.24 | 1.14 | 1.29 | 1.11 | 0.613
AUUCACCAAGCUCAUCGGGUG [Fam2.2 aminoacylation ribozyme variant] | 9.43 | 2.4 | 2.13 | 2.92 | 2.92 | 1.79
AUUCACCUCUGUCAUCGGGUG [Fam2.2 aminoacylation ribozyme variant] | 54.5 | 3.8 | 7.32 | 4.06 | 10.1 | 7.31
CCACACUUCAGGCAAUCGGUU [Fam1B.1 aminoacylation ribozyme variant] | 6.44 | 1.68 | 2.24 | 1.98 | 2.13 | 2.37
AUUCACUUAGGUCAUCGGGUC [Fam2.2 aminoacylation ribozyme variant] | 0.826 | 1.04 | 1.22 | 1.2 | 0.969 | 1.06
GUUACCCUGGGCAUCGAGUGA [Fam2.1 aminoacylation ribozyme variant] | 68.6 | 4.53 | 8.99 | 4.16 | 8.7 | 10.1
CCACACUUGAAGCUAUCGGUC [Fam1B.1 aminoacylation ribozyme variant] | 0.482 | 1.07 | 0.885 | 1.02 | 0.775 | 0.759
CUACAUUUCAAGCAAUCGGUC [Fam1B.1 aminoacylation ribozyme variant] | 2.41 | 0.887 | 0.748 | 0.849 | 0.705 | 1.45
CUACUUCAAAGAAUCGAUCUG [Fam1A.1 aminoacylation ribozyme variant] | 0.544 | 0.679 | 0.454 | 0.595 | 0.615 | 0.506
AUUCUCCUGGGUCAUCGGGUG [Fam2.2 aminoacylation ribozyme variant] | 73.6 | 6.05 | 9.61 | 7.53 | 10.8 | 9.42
AAGUUUACUAAUAGUCGCAAA [Fam3.1 aminoacylation ribozyme variant] | 2.01 | 1.95 | 1.44 | 1.61 | 1.35 | 2.06
AUUCGCCUAGGUCUUCGGGUG [Fam2.2 aminoacylation ribozyme variant] | 55.9 | 5.33 | 7.49 | 5.82 | 8.57 | 9
AUUCACCUAGAUCAUUGGGUG [Fam2.2 aminoacylation ribozyme variant] | 18 | 2.15 | 3.71 | 1.91 | 3.94 | 3.54

Sequence | self-aminoacylation (biotinyl-Phe-oxazolone) | self-aminoacylation (biotinyl-Ile-oxazolone) | self-aminoacylation (biotinyl-Met-oxazolone) | self-aminoacylation (biotinyl-Val-oxazolone) | self-aminoacylation (biotinyl-Leu-oxazolone) | self-aminoacylation (biotinyl-Trp-oxazolone)
AAGUUUGAUAAUAGUCGCAAC [Fam3.1 aminoacylation ribozyme variant] | 1.27 | 0.926 | 0.773 | 0.809 | 0.718 | 0.736
CUGCUUCAAACAAUCGGGCUG [Fam1A.1 aminoacylation ribozyme variant] | 38.7 | 2.2 | 2.66 | 2.33 | 3.18 | 36.1
CCACAAUGCAAGCAAUCGGUC [Fam1B.1 aminoacylation ribozyme variant] | 1.02 | 1.48 | 1.22 | 1.41 | 1.01 | 0.93
CUACUUCACACAAUCGGUCUA [Fam1A.1 aminoacylation ribozyme variant] | 0.822 | 0.72 | 0.626 | 0.834 | 0.802 | 0.777
AUUACCCUGGUCAACGAGUGC [Fam2.1 aminoacylation ribozyme variant] | 0.478 | 0.908 | 0.848 | 0.903 | 1.01 | 0.892
AAGUAUGCUGAUAGUCGCAAG [Fam3.1 aminoacylation ribozyme variant] | 1.92 | 1.84 | 1.94 | 1.65 | 1.91 | 1.96
CCACUUUUCAAGCAAUCGGUC [Fam1B.1 aminoacylation ribozyme variant] | 1.58 | 1.25 | 1.1 | 1.32 | 1.1 | 1.06
AAGGUUGCUAAUAGUCGCGAG [Fam3.1 aminoacylation ribozyme variant] | 2.49 | 1.56 | 1.64 | 1.5 | 0.991 | 1.64
AUUGCCCUGGUCCUCGAGUGA [Fam2.1 aminoacylation ribozyme variant] | 23.4 | 1.94 | 3.5 | 2.05 | 3.42 | 3.66
CUACUCCAAACAAUCCGUCUG [Fam1A.1 aminoacylation ribozyme variant] | 0.642 | 0.838 | 0.636 | 0.821 | 0.759 | 0.582
AAGUUUUCUAAUAGUCGGAAG [Fam3.1 aminoacylation ribozyme variant] | 1.99 | 1.44 | 1.25 | 1.31 | 1.14 | 1.21
CUGAUUCAAACAAUCGGUCUG [Fam1A.1 aminoacylation ribozyme variant] | 9.61 | 0.947 | 0.923 | 0.828 | 1.14 | 6.12
AGACUUCAAACAAUCGGUCUG [Fam1A.1 aminoacylation ribozyme variant] | 125 | 2.06 | 2.4 | 1.93 | 3.5 | 48.1
AUUACCCUGGUCAUCGAGUUC [Fam2.1 aminoacylation ribozyme variant] | 4.38 | 1.02 | 1.88 | 1.53 | 2.17 | 1.54
CUACUUCAAAAAAUCGGUCAG [Fam1A.1 aminoacylation ribozyme variant] | 3.51 | 0.845 | 0.722 | 0.613 | 0.653 | 1.82
AAUACCCUGGUAAUCGAGUGA [Fam2.1 aminoacylation ribozyme variant] | 38.5 | 3.96 | 7.38 | 3.37 | 8.53 | 10.3
AUUACCCUGGUCAACUAGUGA [Fam2.1 aminoacylation ribozyme variant] | 24.9 | 3.93 | 8.64 | 4.39 | 6.83 | 9.81
ACGUUUGUUAAUAGUCGCAAG [Fam3.1 aminoacylation ribozyme variant] | 3.28 | 1.85 | 2.07 | 1.69 | 2.19 | 1.71
AUUACCCUGGUCAUAGAGUGG [Fam2.1 aminoacylation ribozyme variant] | 3.37 | 1.37 | 2.18 | 1.43 | 2.31 | 1.18
CCACACUUCCAUCAAUCGGUC [Fam1B.1 aminoacylation ribozyme variant] | 0.715 | 0.683 | 0.561 | 0.732 | 0.593 | 0.586
AUUCGCCUAGGUCAUCCGGUG [Fam2.2 aminoacylation ribozyme variant] | 78.7 | 6.5 | 7.99 | 6.7 | 10.9 | 10.3
CAGUUUGCUAAUAAUCGCAAG [Fam3.1 aminoacylation ribozyme variant] | 1.1 | 0.97 | 1 | 1.03 | 0.99 | 0.939
AUUACCCAGGUCCUCGAGUGA [Fam2.1 aminoacylation ribozyme variant] | 10.3 | 2.2 | 2.79 | 2.15 | 3.11 | 3.69
AUUACCCUGGUCAUAGAGUCA [Fam2.1 aminoacylation ribozyme variant] | 0.531 | 0.884 | 0.82 | 0.974 | 0.962 | 0.529
AUUAGCAUGGUCAUCGAGUGA [Fam2.1 aminoacylation ribozyme variant] | 3.31 | 2.87 | 3.11 | 2.64 | 3.39 | 3.81
